# Numbered stars: 1 amine (or outer) side, 2 acyl side, 3 side chain; on linkers, the order of the positions; unused ones are H or OH. Bridge positions count the residues as written; N and C are the ends. * marks the point of attachment. C20 diacid = O=C(O)CCCCCCCCCCCCCCCCCCC(=O)*; γGlu = O=C(O)[C@H](CCC(=O)[*:2])N[*:1]
# T1: human calcitonin receptor (human, UniProt P30988 25-474)
# T1 construct: whole, on cells; also called hCTR; hCT
# T1 sequence (looked up): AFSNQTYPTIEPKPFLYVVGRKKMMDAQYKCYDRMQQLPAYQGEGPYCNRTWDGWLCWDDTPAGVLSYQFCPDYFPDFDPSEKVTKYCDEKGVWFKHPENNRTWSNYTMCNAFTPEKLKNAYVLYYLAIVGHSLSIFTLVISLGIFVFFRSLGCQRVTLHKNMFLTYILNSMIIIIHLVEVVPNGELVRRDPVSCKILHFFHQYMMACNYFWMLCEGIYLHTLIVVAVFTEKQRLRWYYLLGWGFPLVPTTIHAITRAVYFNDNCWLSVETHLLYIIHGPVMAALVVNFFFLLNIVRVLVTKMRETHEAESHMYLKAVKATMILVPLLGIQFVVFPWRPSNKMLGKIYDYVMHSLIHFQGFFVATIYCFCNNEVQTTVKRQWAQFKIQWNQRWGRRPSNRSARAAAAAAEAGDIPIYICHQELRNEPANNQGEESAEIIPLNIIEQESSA
# Legend:
# [1] = molecular target: T1, human calcitonin receptor; test: SPA competition binding, membranes with human calcitonin receptor, displacement of 125I-calcitonin (Assay VII)
# Method: Membranes were prepared in the following way; the cells were rinsed with PBS and incubated with Versene for approximately 5 min before harvesting. The cells were flushed with PBS and the cell-suspension was centrifuged for 5 min at 1000 rpm. Cells were homogenized (Ultrathurrax) in a buffer containing 20 mM Na-HEPES and 10 mM EDTA (pH 7.4) and centrifuged at 20.000 rpm for 15 min. The resulting pellet was resuspended, homogenized and centrifuged (20.000 rpm, 15 min) in a buffer containing 20 mM Na-HEPES and 0.1 mM EDTA (pH 7.4, buffer 2). The resulting pellet was resuspended in buffer 2 and protein concentration was measured (BCA protein Assay, Pierce). The homogenate was kept cold during the whole procedure. The membranes were kept at −80° C. until use. Assay was performed in a 384 well Optiplate (PerkinElmer) in a total volume of 40 ul. Membranes were mixed with SPA beads. Final concentration of membranes 35 ng/μL final and Final concentration of SPA beads was 0.05 mg/well. Test-compounds were dissolved in DMSO and further diluted in assay buffer (50 mM Hepes, pH 7.4, 1 mM CaCl2, 5 mM MgCl₂, 0.1% OA and 0.02% Tween20). […] The final mixture was incubated for 120 min with shaking at 400 rpm at 25° C. prior to centrifugation (1500 rpm, 10 min). Samples were analyzed on TopCounter™ (Packard). The […] was calculated using (one site binding competition analysis) GraphPad Prism5 as a measure of receptor affinity.
# [2] = molecular target: T1, human calcitonin receptor; test: ratio of IC50 at hCTR to IC50 at the human amylin receptor (reference)
# Method: The resulting pellet was resuspended, homogenized and centrifuged (20.000 rpm, 15 min) in a buffer containing 20 mM Na-HEPES and 0.1 mM EDTA (pH 7.4, buffer 2). The resulting pellet was resuspended in buffer 2 and protein concentration was measured (BCA protein Assay, Pierce). The homogenate was kept cold during the whole procedure. The membranes were kept at −80° C. until use. The assay was performed in a 384 well Optiplate (PerkinElmer) in a total volume of 40 ul. Membranes were mixed with SPA beads. Final concentration of membranes 35 ng/μL final and SPA beads was 0.05 mg/well. Test-compounds were dissolved in DMSO and further diluted in assay buffer (50 mM Hepes, pH 7.4, 1 mM CaCl2, 5 mM MgCl₂, 0.1% OA and 0.02% Tween20). […] The final mixture was incubated with shaking at 400 rpm for 120 min at 25° C. prior to centrifugation (1500 rpm, 10 min). Samples were analyzed on TopCounter™ (Packard). The IC₅₀ was calculated using (one site binding competition analysis) GraphPad Prism5 as a measure of receptor affinity.
# Membranes were prepared in the following way; the cells were rinsed with PBS and incubated with Versene for approximately 5 min before harvesting. The cells were flushed with PBS and the cell-suspension was centrifuged for 5 min at 1000 rpm. Cells were homogenized (Ultrathurrax) in a buffer containing 20 mM Na-HEPES and 10 mM EDTA (pH 7.4) and centrifuged at 20.000 rpm for 15 min. The resulting pellet was resuspended, homogenized and centrifuged (20.000 rpm, 15 min) in a buffer containing 20 mM Na-HEPES and 0.1 mM EDTA (pH 7.4, buffer 2). The resulting pellet was resuspended in buffer 2 and protein concentration was measured (BCA protein Assay, Pierce). The homogenate was kept cold during the whole procedure. The membranes were kept at −80° C. until use. Assay was performed in a 384 well Optiplate (PerkinElmer) in a total volume of 40 ul. Membranes were mixed with SPA beads.
Binder,IC50 [1],Ratio hCT/hAmylin binding [2]
"{C20 diacid-γGlu}-KCNTATCATQRLAEFLRHSSPNFGPILPPTNVGSNTP-NH2 (disulfide 2-7; SMILES CC[C@H](C)[C@H](NC(=O)[C@@H]1CCCN1C(=O)CNC(=O)[C@H](Cc1ccccc1)NC(=O)[C@H](CC(N)=O)NC(=O)[C@@H]1CCCN1C(=O)[C@H](CO)NC(=O)[C@H](CO)NC(=O)[C@H](Cc1c[nH]cn1)NC(=O)[C@H](CCCNC(=N)N)NC(=O)[C@H](CC(C)C)NC(=O)[C@H](Cc1ccccc1)NC(=O)[C@H](CCC(=O)O)NC(=O)[C@H](C)NC(=O)[C@H](CC(C)C)NC(=O)[C@H](CCCNC(=N)N)NC(=O)[C@H](CCC(N)=O)NC(=O)[C@@H](NC(=O)[C@H](C)NC(=O)[C@@H]1CSSC[C@H](NC(=O)[C@H](CCCCN)NC(=O)CC[C@H](NC(=O)CCCCCCCCCCCCCCCCCCC(=O)O)C(=O)O)C(=O)N[C@@H](CC(N)=O)C(=O)N[C@@H]([C@@H](C)O)C(=O)N[C@@H](C)C(=O)N[C@@H]([C@@H](C)O)C(=O)N1)[C@@H](C)O)C(=O)N[C@@H](CC(C)C)C(=O)N1CCC[C@H]1C(=O)N1CCC[C@H]1C(=O)N[C@H](C(=O)N[C@@H](CC(N)=O)C(=O)N[C@H](C(=O)NCC(=O)N[C@@H](CO)C(=O)N[C@@H](CC(N)=O)C(=O)N[C@H](C(=O)N1CCC[C@H]1C(N)=O)[C@@H](C)O)C(C)C)[C@@H](C)O, also called compound 4)",0.688 nM,2.1
"{C20 diacid-γGlu}-KCNTATCATQRLAEFLRHSSPNFGAIPSSTNVGSRTY-NH2 (disulfide 2-7; SMILES CC[C@H](C)[C@H](NC(=O)[C@H](C)NC(=O)CNC(=O)[C@H](Cc1ccccc1)NC(=O)[C@H](CC(N)=O)NC(=O)[C@@H]1CCCN1C(=O)[C@H](CO)NC(=O)[C@H](CO)NC(=O)[C@H](Cc1c[nH]cn1)NC(=O)[C@H](CCCNC(=N)N)NC(=O)[C@H](CC(C)C)NC(=O)[C@H](Cc1ccccc1)NC(=O)[C@H](CCC(=O)O)NC(=O)[C@H](C)NC(=O)[C@H](CC(C)C)NC(=O)[C@H](CCCNC(=N)N)NC(=O)[C@H](CCC(N)=O)NC(=O)[C@@H](NC(=O)[C@H](C)NC(=O)[C@@H]1CSSC[C@H](NC(=O)[C@H](CCCCN)NC(=O)CC[C@H](NC(=O)CCCCCCCCCCCCCCCCCCC(=O)O)C(=O)O)C(=O)N[C@@H](CC(N)=O)C(=O)N[C@@H]([C@@H](C)O)C(=O)N[C@@H](C)C(=O)N[C@@H]([C@@H](C)O)C(=O)N1)[C@@H](C)O)C(=O)N1CCC[C@H]1C(=O)N[C@@H](CO)C(=O)N[C@@H](CO)C(=O)N[C@H](C(=O)N[C@@H](CC(N)=O)C(=O)N[C@H](C(=O)NCC(=O)N[C@@H](CO)C(=O)N[C@@H](CCCNC(=N)N)C(=O)N[C@H](C(=O)N[C@@H](Cc1ccc(O)cc1)C(N)=O)[C@@H](C)O)C(C)C)[C@@H](C)O, also called compound 16)",17.1 nM,19.1
"{C20 diacid-γGlu}-KCNTATCATQRLAEFLRHSSPNFGAPLSSTNVGSNTP-NH2 (disulfide 2-7; SMILES CC(C)C[C@H](NC(=O)[C@H](CCCNC(=N)N)NC(=O)[C@H](CCC(N)=O)NC(=O)[C@@H](NC(=O)[C@H](C)NC(=O)[C@@H]1CSSC[C@H](NC(=O)[C@H](CCCCN)NC(=O)CC[C@H](NC(=O)CCCCCCCCCCCCCCCCCCC(=O)O)C(=O)O)C(=O)N[C@@H](CC(N)=O)C(=O)N[C@@H]([C@@H](C)O)C(=O)N[C@@H](C)C(=O)N[C@@H]([C@@H](C)O)C(=O)N1)[C@@H](C)O)C(=O)N[C@@H](C)C(=O)N[C@@H](CCC(=O)O)C(=O)N[C@@H](Cc1ccccc1)C(=O)N[C@@H](CC(C)C)C(=O)N[C@@H](CCCNC(=N)N)C(=O)N[C@@H](Cc1c[nH]cn1)C(=O)N[C@@H](CO)C(=O)N[C@@H](CO)C(=O)N1CCC[C@H]1C(=O)N[C@@H](CC(N)=O)C(=O)N[C@@H](Cc1ccccc1)C(=O)NCC(=O)N[C@@H](C)C(=O)N1CCC[C@H]1C(=O)N[C@@H](CC(C)C)C(=O)N[C@@H](CO)C(=O)N[C@@H](CO)C(=O)N[C@H](C(=O)N[C@@H](CC(N)=O)C(=O)N[C@H](C(=O)NCC(=O)N[C@@H](CO)C(=O)N[C@@H](CC(N)=O)C(=O)N[C@H](C(=O)N1CCC[C@H]1C(N)=O)[C@@H](C)O)C(C)C)[C@@H](C)O, also called compound 5)",0.537 nM,1.4
"{C20 diacid-γGlu}-KCNTATCATQRLAEFLRHSSPNFGPILPPTNVGSNTY-NH2 (disulfide 2-7; SMILES CC[C@H](C)[C@H](NC(=O)[C@@H]1CCCN1C(=O)CNC(=O)[C@H](Cc1ccccc1)NC(=O)[C@H](CC(N)=O)NC(=O)[C@@H]1CCCN1C(=O)[C@H](CO)NC(=O)[C@H](CO)NC(=O)[C@H](Cc1c[nH]cn1)NC(=O)[C@H](CCCNC(=N)N)NC(=O)[C@H](CC(C)C)NC(=O)[C@H](Cc1ccccc1)NC(=O)[C@H](CCC(=O)O)NC(=O)[C@H](C)NC(=O)[C@H](CC(C)C)NC(=O)[C@H](CCCNC(=N)N)NC(=O)[C@H](CCC(N)=O)NC(=O)[C@@H](NC(=O)[C@H](C)NC(=O)[C@@H]1CSSC[C@H](NC(=O)[C@H](CCCCN)NC(=O)CC[C@H](NC(=O)CCCCCCCCCCCCCCCCCCC(=O)O)C(=O)O)C(=O)N[C@@H](CC(N)=O)C(=O)N[C@@H]([C@@H](C)O)C(=O)N[C@@H](C)C(=O)N[C@@H]([C@@H](C)O)C(=O)N1)[C@@H](C)O)C(=O)N[C@@H](CC(C)C)C(=O)N1CCC[C@H]1C(=O)N1CCC[C@H]1C(=O)N[C@H](C(=O)N[C@@H](CC(N)=O)C(=O)N[C@H](C(=O)NCC(=O)N[C@@H](CO)C(=O)N[C@@H](CC(N)=O)C(=O)N[C@H](C(=O)N[C@@H](Cc1ccc(O)cc1)C(N)=O)[C@@H](C)O)C(C)C)[C@@H](C)O, also called compound 6)",19.9 nM,20
"{C20 diacid-γGlu}-KCNTATCATQRLAEFLRHSSPNFGAPLSSTNVGSNTY-NH2 (disulfide 2-7; SMILES CC(C)C[C@H](NC(=O)[C@H](CCCNC(=N)N)NC(=O)[C@H](CCC(N)=O)NC(=O)[C@@H](NC(=O)[C@H](C)NC(=O)[C@@H]1CSSC[C@H](NC(=O)[C@H](CCCCN)NC(=O)CC[C@H](NC(=O)CCCCCCCCCCCCCCCCCCC(=O)O)C(=O)O)C(=O)N[C@@H](CC(N)=O)C(=O)N[C@@H]([C@@H](C)O)C(=O)N[C@@H](C)C(=O)N[C@@H]([C@@H](C)O)C(=O)N1)[C@@H](C)O)C(=O)N[C@@H](C)C(=O)N[C@@H](CCC(=O)O)C(=O)N[C@@H](Cc1ccccc1)C(=O)N[C@@H](CC(C)C)C(=O)N[C@@H](CCCNC(=N)N)C(=O)N[C@@H](Cc1c[nH]cn1)C(=O)N[C@@H](CO)C(=O)N[C@@H](CO)C(=O)N1CCC[C@H]1C(=O)N[C@@H](CC(N)=O)C(=O)N[C@@H](Cc1ccccc1)C(=O)NCC(=O)N[C@@H](C)C(=O)N1CCC[C@H]1C(=O)N[C@@H](CC(C)C)C(=O)N[C@@H](CO)C(=O)N[C@@H](CO)C(=O)N[C@H](C(=O)N[C@@H](CC(N)=O)C(=O)N[C@H](C(=O)NCC(=O)N[C@@H](CO)C(=O)N[C@@H](CC(N)=O)C(=O)N[C@H](C(=O)N[C@@H](Cc1ccc(O)cc1)C(N)=O)[C@@H](C)O)C(C)C)[C@@H](C)O, also called compound 7) [N^α1-[(4S)-4-carboxy-4-(19-carboxynonadecanoylamino)butanoyl]-[Glu14,Arg17,Pro21,Pro26]-h-amylin]",11.1 nM,16.5

# — patent US20140087995A1 (published 2014)
